Measured values: article PMC3303827

Tests used:
[1] = molecular target: U266 derived IgE λ light chain (dimer) (human (endogenous in U266)); experiment: SEC; Superdex 75 10/300 GL; 1 g/L light chain in 20 mM HCl pH 2.0; mobile phase 100 mM Na2SO4, 25 mM Na2HPO4 pH 7.4; calibrated with BSA, chymotrypsinogen A, lysozyme
[2] = molecular target: U266 derived IgE λ light chain (dimer) (human (endogenous in U266)); experiment: SEC; Superdex 75 10/300 GL; 1 g/L light chain in 25 mM PBS pH 7.4; mobile phase 100 mM Na2SO4, 25 mM Na2HPO4 pH 7.4; calibrated with BSA, chymotrypsinogen A, lysozyme
[3] = molecular target: U266 derived IgE λ light chain (dimer) (human (endogenous in U266)); experiment: ESI-Qq-TOF mass spectrometry; nano-spray; sample in 20 mM HCl pH 2.0 (methods say pH 2.7); spectra deconvoluted by MaxEnt
[4] = molecular target: U266 derived IgE λ light chain (dimer) (human (endogenous in U266)); experiment: ESI-Qq-TOF mass spectrometry; nano-spray; sample in 25 mM PBS pH 7.4; spectra deconvoluted by MaxEnt

Measured: stoichiometry N

U266 derived IgE λ light chain (dimer) (natural protein)
2: all assays above
